{"source": "patent US20040138440A1", "about": "“Aspergillus fumigatus cofilin” (priority 2004, published 2004)", "molecular_target": "T1, preassembled pyrene-actin filaments (Gallus gallus, UniProt P68139)", "T1 construct": "Mince 2 kg of fresh, boneless, skinless chicken breast in a pre-chilled meat grinder; from tissue; host or cells: chicken breast (skeletal) muscle, via acetone powder", "assay": "pyrene actin assay (decrease in fluorescence of filamentous pyrene-actin on addition of cofilin)", "assay_type": "biochemical, chicken", "details": "addition of stoichiometric amounts of cofilin to preassembled pyrene-actin filaments; FIG. 3", "text": "The effect of cofilin on preassembled pyrene-actin filaments is monitored. Two cofilin activities—binding to actin polymer and enhancing depolymerization—combine to reduce the relative fluorescence intensity. Addition of stoichiometric amounts of cofilin results in a 3-5 fold reduction in fluorescence intensity. In both these assays, any inhibitor will result in an increase in relative fluorescence intensity. For both graphs, the x-axes show cycle number (1 cycle/30 sec) and the y-axes reflect fluorescence in arbitrary units..\nAssays for the interaction of A. fumigatus cofilin and any other cofilin with actin in 384-well plates using a fluorescence as the detection means have been developed. […]\nUpon addition of cofilin to filamentous pyrene-actin, two well-characterized biochemical activities can be monitored. First, cofilin binds to the filaments and partially quenches the pyrene fluorescence. Second, it induces filament disassembly, further decreasing pyrene fluorescence. The decrease in fluorescence that results when cofilin is added to filamentous actin is monitored (FIG. 3). An inhibitor of the interaction of cofilin with pyrene-actin will result in an increase in fluorescence. […]\nThaw Actin, Pyrene-Actin and Cofilin pellets on ice or at room temp. […] Take readings at OD290. […]\nAdd 25 ul of sample into each well. […] Take Pyrene-Kinetic readings (Fluorostar setting) at 150 cycles, 360 to […]."}
{"molecule": "A. fumigatus cofilin: proteins or polypeptides present in A. fumigatus that are capable of binding actin; amino acid sequence SEQ ID NO:2; expressed in E. coli (protein, listed as Aspergillus fumigatus, Cofilin sequence, expressed in E. coli) MALASGVSIADECITAFNDFRMSGNKANKTKFIIFKIADNKKEVVIDEVSQEEDYEVFRSRLEATKDSKGNPAPRYAVYDVEYDLGGGEGKRSKIVFISWVPSDTPTLWSMIYASTRENLKNALNIHTSIHADDKGDIEWKTVLAEASGGKAGK", "values": [{"measurement": "reduction in fluorescence intensity", "value": "3-5 fold"}]}
